From patent publication EP1736545A2 come the findings set out here.

For assay [1], the target named is IL-TIF protein (human) (UniProt Q9GZX6). As to the kind of experiment: cell-based or functional assay.
Assay [2] concerns the target zcytor11 and CRF2-4 receptors co-expressed on transfected BaF3 or BHK cells (human) (UniProt Q08334). As to the kind of experiment: cell-based or functional assay.

IL-TIF protein (human), sequence (Q9GZX6 34-179 limits assumed, form in doubt): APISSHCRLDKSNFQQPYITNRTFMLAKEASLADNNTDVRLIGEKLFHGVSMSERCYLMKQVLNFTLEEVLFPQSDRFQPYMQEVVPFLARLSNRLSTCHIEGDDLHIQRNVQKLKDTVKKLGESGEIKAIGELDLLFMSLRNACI
zcytor11 and CRF2-4 receptors co-expressed on transfected BaF3 or BHK cells (human), sequence (chain, as listed by the source limits assumed, form in doubt, chain 1 of 2): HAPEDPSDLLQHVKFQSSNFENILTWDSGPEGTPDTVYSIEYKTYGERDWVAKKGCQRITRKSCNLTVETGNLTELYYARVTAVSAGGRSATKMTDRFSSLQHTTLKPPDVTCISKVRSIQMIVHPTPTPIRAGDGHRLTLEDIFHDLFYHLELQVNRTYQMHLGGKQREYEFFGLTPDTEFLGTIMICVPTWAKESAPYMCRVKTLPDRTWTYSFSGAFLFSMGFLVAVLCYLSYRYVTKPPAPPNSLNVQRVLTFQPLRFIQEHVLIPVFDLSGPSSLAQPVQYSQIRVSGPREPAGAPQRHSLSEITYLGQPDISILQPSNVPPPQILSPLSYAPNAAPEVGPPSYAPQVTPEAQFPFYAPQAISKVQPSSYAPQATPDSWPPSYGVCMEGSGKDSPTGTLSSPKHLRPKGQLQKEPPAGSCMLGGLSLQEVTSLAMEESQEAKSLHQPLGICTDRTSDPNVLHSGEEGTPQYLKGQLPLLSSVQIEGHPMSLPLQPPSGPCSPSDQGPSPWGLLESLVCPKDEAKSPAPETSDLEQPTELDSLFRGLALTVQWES
zcytor11 and CRF2-4 receptors co-expressed on transfected BaF3 or BHK cells (human), sequence (Q08334 20-325 limits assumed, form in doubt, chain 2 of 2): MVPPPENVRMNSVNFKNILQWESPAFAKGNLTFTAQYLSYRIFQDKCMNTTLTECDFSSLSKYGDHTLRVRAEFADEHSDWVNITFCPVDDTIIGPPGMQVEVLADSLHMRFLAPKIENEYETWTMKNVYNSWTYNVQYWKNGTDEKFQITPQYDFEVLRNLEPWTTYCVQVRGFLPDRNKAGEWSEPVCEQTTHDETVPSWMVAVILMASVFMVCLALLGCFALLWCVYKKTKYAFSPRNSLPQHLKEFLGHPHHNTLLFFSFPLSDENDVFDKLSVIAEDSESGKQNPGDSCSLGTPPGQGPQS

In assay [1], “CRF2-4/zcytor11-Fc soluble receptor heterodimer (Fc fusion)” had an inhibition of IL-TIF-induced proliferation of BaF3/CRF2-4/zcytor11 cells (Alamar Blue): concentration at which inhibition was barely detectable of 1.6 ng/mL, an inhibition of IL-TIF-induced proliferation of BaF3/CRF2-4/zcytor11 cells (Alamar Blue): concentrations giving complete inhibition of 25 to 200 ng/mL and an inhibition of IL-TIF-induced proliferation of BaF3/CRF2-4/zcytor11 cells (Alamar Blue): concentrations giving partial inhibition of 3.1 to 12.5 ng/mL.
“IL-TIF protein (from UniProt Q9GZX6 34-179) (ligand)”: the proliferation of BaF3/CRF2-4/zcytor11 cells (Alamar Blue), IL-TIF at 100 pg/ml (fold over background) in assay [2] came out at 30.
